Experimental data as given in publication PMC10907630.

Tested on: tau ΔMTBD-DBR (1N4R) del242-265, P10636-7
Test: EMSA
Conditions: 10 mM NaCl; text gives 430; EMSA: 20 nM DNA or nucleosome, 20 mM HEPES pH 7.2, 10 mM NaCl (or 150), 0.5 mM TCEP, 0.1% Tween-20, 5% sucrose, room temperature 20 min; FA: 10 nM DNA, same …

Chain of tau ΔMTBD-DBR (1N4R) del242-265, P10636-7 (P10636 other isoform, or with tags, fused parts or gaps mutant): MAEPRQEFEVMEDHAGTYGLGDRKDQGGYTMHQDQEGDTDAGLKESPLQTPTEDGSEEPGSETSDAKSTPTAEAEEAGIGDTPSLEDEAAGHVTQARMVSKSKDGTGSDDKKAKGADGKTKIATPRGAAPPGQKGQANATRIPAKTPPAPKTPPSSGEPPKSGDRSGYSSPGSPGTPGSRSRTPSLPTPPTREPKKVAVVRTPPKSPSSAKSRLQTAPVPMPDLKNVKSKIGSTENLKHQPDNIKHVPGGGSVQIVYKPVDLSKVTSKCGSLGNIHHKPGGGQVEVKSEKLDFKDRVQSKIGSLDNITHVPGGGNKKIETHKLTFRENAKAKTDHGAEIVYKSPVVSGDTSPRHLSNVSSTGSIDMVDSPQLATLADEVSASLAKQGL

ACTACGCGGCCGCCCTGGAGAATCCCGGTGCCGAGGCCGCTCAATTGGTCGTAGACAGCTCTAGCACCGCTTAAACGCACGTACGCGCTGTCCCCCGCGTTTTAACCGCCAAGGGGATTACTCCCTAGTCTCCAGGCACGTGTCAGATATATACATCCTGTGCATGTAAGATCCAGT (double strand) [177 bp DNA (601)]
Kd: 427 nM
